{"source": "patent US20190211096A1", "key": {"[1]": {"target": "human AMH of serum samples (human) (UniProt P03971)", "sequence (P03971 25-560 limits assumed)": "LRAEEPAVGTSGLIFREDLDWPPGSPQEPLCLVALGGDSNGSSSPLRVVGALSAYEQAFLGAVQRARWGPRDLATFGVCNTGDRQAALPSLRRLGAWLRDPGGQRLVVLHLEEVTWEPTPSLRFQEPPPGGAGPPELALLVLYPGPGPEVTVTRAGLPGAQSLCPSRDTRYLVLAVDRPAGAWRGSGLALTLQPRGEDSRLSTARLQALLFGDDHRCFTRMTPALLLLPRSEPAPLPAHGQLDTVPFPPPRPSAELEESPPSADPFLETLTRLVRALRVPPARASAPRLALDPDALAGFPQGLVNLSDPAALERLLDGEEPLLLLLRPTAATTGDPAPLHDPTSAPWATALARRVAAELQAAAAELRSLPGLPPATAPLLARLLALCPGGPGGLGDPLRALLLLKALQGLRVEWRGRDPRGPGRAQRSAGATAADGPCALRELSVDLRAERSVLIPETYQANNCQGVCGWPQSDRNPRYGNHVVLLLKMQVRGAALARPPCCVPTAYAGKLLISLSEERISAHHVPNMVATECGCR", "assay": "VIDAS sandwich, detection AA011 conjugate 500 ng/ml, AMH 0.11 ng/ml"}, "[2]": {"target": "human AMH of serum samples (human) (UniProt P03971)", "assay": "VIDAS sandwich, detection AA011 conjugate 500 ng/ml, AMH 2.1 ng/ml"}, "[3]": {"target": "human AMH of serum samples (human) (UniProt P03971)", "assay": "VIDAS sandwich, detection AA011 conjugate 500 ng/ml, AMH 4 ng/ml"}, "[4]": {"target": "human AMH of serum samples (human) (UniProt P03971)", "assay": "VIDAS sandwich, detection AA011 conjugate 500 ng/ml, AMH 0.055 ng/ml"}, "[5]": {"target": "human AMH of serum samples (human) (UniProt P03971)", "assay": "VIDAS sandwich, detection AA011 conjugate 500 ng/ml, AMH 11 ng/ml"}, "[6]": {"target": "human AMH of serum samples (human) (UniProt P03971)", "assay": "VIDAS sandwich, detection AA011 conjugate 500 ng/ml, AMH 0.9 ng/ml"}, "[7]": {"target": "human AMH of serum samples (human) (UniProt P03971)", "assay": "VIDAS sandwich, detection AA011 conjugate 500 ng/ml, AMH 0.275 ng/ml"}, "[8]": {"target": "human AMH of serum samples (human) (UniProt P03971)", "assay": "VIDAS sandwich, detection AA011 conjugate 500 ng/ml, AMH 6.3 ng/ml"}, "[9]": {"target": "human AMH of serum samples (human) (UniProt P03971)", "assay": "VIDAS sandwich, detection AA011 conjugate 500 ng/ml, AMH 8.7 ng/ml"}}, "data": [{"substance": "AA012 commercial anti-AMH antibody (AnshLabs)", "values": [{"measurement": "S/N (VIDAS RFV/RFV0)", "setting": "[1]", "result": 3}, {"measurement": "VIDAS RFV Signal", "setting": "[1]", "result": 113, "unit": "RFV"}, {"measurement": "S/N (VIDAS RFV/RFV0)", "setting": "[2]", "result": 36}, {"measurement": "VIDAS RFV Signal", "setting": "[2]", "result": 1600, "unit": "RFV"}, {"measurement": "S/N (VIDAS RFV/RFV0)", "setting": "[3]", "result": 65}, {"measurement": "VIDAS RFV Signal", "setting": "[3]", "result": 2940, "unit": "RFV"}, {"measurement": "S/N (VIDAS RFV/RFV0)", "setting": "[4]", "result": 2}, {"measurement": "VIDAS RFV Signal", "setting": "[4]", "result": 81, "unit": "RFV"}, {"measurement": "S/N (VIDAS RFV/RFV0)", "setting": "[5]", "result": 120}, {"measurement": "VIDAS RFV Signal", "setting": "[5]", "result": 5390, "unit": "RFV"}, {"measurement": "S/N (VIDAS RFV/RFV0)", "setting": "[6]", "result": 16}, {"measurement": "VIDAS RFV Signal", "setting": "[6]", "result": 735, "unit": "RFV"}, {"measurement": "S/N (VIDAS RFV/RFV0)", "setting": "[7]", "result": 5}, {"measurement": "VIDAS RFV Signal", "setting": "[7]", "result": 209, "unit": "RFV"}, {"measurement": "S/N (VIDAS RFV/RFV0)", "setting": "[8]", "result": 87}, {"measurement": "VIDAS RFV Signal", "setting": "[8]", "result": 3920, "unit": "RFV"}, {"measurement": "S/N (VIDAS RFV/RFV0)", "setting": "[9]", "result": 107}, {"measurement": "VIDAS RFV Signal", "setting": "[9]", "result": 4810, "unit": "RFV"}]}]}
